Each block holds one binder with its values, some of them ahead of it. Non-standard residues stand in square brackets, D forms with d. No end group written: not given here. Tyr(3-I) = N[C@@H](Cc1ccc(O)c(I)c1)C(=O)O
Assays:
[1] = biological target: T1, cap-binding complex (CBC): preformed complex of CBP80–CBP20 (human, UniProt Q09161;P52298, Δ2–23); assay: fluorescence polarisation
T1 sequence 1: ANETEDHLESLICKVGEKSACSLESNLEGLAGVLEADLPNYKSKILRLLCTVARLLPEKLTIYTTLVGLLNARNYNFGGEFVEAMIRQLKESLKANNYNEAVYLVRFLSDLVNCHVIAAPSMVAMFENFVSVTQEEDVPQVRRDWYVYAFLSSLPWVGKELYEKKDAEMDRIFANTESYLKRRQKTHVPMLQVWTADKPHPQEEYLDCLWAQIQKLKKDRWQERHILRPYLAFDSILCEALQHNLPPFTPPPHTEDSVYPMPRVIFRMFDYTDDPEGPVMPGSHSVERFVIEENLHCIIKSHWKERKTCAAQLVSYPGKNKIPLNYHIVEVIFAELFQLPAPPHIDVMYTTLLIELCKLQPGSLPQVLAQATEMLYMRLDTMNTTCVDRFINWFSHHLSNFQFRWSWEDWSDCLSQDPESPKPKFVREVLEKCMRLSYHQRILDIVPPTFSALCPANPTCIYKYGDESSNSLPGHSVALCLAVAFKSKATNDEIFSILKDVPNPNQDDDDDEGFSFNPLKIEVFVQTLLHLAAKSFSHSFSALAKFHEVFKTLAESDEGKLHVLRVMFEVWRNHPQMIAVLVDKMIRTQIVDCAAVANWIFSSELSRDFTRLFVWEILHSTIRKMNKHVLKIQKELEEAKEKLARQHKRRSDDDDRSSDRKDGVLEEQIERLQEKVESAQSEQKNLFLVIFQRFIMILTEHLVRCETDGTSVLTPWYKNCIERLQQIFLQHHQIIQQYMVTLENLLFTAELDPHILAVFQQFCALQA
T1 sequence 2: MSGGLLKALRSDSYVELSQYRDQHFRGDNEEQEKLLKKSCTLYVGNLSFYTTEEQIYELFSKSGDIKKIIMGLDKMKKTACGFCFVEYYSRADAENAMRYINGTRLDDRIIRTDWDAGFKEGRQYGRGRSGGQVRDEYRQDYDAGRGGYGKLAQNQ

[2] = biological target: T2, HIS-TEV-tagged CBP80(Δ2–23) (human, UniProt Q09161 24-790, Δ2–23); assay: crystal structure
T2 sequence: T1 sequence 1

[3] = biological target: T2, HIS-TEV-tagged CBP80(Δ2–23); assay: pull-down
[4] = biological target: T1, cap-binding complex (CBC): preformed …; assay: crystal structure

binding result [1]: binds
Binder: MDFDSLLKEAQQS [PGC-1β peptide, amino acids 1009–1021]

binding result [1]: binds
Binder: MDFDSLLKEGQQS [PGC-1β-10G]

binding result [2]: binds
B1: CBP20 (natural protein)
chain: T1 sequence 2

binding result [3]: binds
Binder: PASGKSKYEAMDFDSLLKEAQQSLH (domain or fragment) [PGC-1β amino acids 999–1023]

binding result [2]: binds
binding result [4]: binds
Binder: Ac-SEEALPASGKSK[Tyr(3-I)]EAMDFDSLLKEAQQSLH (not fully specified) [synthetic PGC-1β peptide spanning amino acids 994–1023]

From paper PMC5959238 (Genes & Development, 2018)
